Experimental data from paper PMC10663602, “The structure of the teleost Immunoglobulin M core provides insights on polymeric antibody evolution, assembly, and function” (Nature Communications, 2023).

T1: hFcµ-tFcµ-chi4 (human | Oncorhynchus mykiss (rainbow …))
T1 chain: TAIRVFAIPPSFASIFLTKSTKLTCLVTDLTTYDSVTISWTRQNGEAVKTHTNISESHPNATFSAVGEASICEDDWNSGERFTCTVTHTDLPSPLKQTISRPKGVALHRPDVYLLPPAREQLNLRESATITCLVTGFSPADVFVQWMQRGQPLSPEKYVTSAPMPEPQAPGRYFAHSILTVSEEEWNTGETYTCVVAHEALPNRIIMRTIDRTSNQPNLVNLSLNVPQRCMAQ

B1: hFcµ-tFcµ-chi4 (other)
chain: T1 chain
modifications: N-glycosylated; probable tetramer (P1), also a monomer fraction (P2) / N-glycosylated; probable tetramer (P1), also a monomer fraction (P2)
B2: full-length hFcµ expressed without JC (domain or fragment)
chain: TAIRVFAIPPSFASIFLTKSTKLTCLVTDLTTYDSVTISWTRQNGEAVKTHTNISESHPNATFSAVGEASICEDDWNSGERFTCTVTHTDLPSPLKQTISRPKGVALHRPDVYLLPPAREQLNLRESATITCLVTGFSPADVFVQWMQRGQPLSPEKYVTSAPMPEPQAPGRYFAHSILTVSEEEWNTGETYTCVVAHEALPNRVTERTVDKSTGKPTLYNVSLVMSDTAGTCY
modifications: N-glycosylated, disulfide-linked hexamer of Fc dimers without J chain. Secretory form with tailpiece. N-terminus taken at TAIRVF (T343 in the paper's numbering), as in the printed chimeras; entity …

Legend:
hFcµ-tFcµ-chi4 = biological target: T1, hFcµ-tFcµ-chi4; assay: SEC-MALS; Superose 6 Increase 10/300, TBS buffer, 0.5 ml/min, 25 °C; 100 uL of protein at approximately 2 g/L; pIg peaks isolated from mIg by SEC before the analysis; conditions: both partners purified
[1] = biological target: full-length hFcµ expressed without JC (human, UniProt P01871 106-433); assay: as above; conditions: both partners purified
Chain of full-length hFcµ expressed without JC (P01871 106-433): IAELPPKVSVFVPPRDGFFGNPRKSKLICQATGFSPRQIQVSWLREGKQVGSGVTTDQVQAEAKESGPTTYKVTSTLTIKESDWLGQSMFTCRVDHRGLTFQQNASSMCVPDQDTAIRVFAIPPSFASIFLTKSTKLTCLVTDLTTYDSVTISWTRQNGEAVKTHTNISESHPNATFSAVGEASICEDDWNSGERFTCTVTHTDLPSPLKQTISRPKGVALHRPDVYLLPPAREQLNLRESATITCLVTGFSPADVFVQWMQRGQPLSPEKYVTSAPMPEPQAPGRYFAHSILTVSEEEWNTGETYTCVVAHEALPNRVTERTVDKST

| Binder | stoichiometry N (hFcµ-tFcµ-chi4) | stoichiometry N [1] |
| --- | --- | --- |
| B1 | ~4 | – |
| B2 | – | 6 |
